Measured values taken from the supplement of paper PMC11316812.
± gives the standard deviation of the averaged measurements.

Tests used:
MCF7 = assay: percentage of EdU-negative (G0-arrested) nuclei per well, 72 h; higher = more G0 arrest; conditions: reference: sequence is the full UniProt precursor, the tested protein was the secreted form or ectodomain
hTERT-HMEC = assay: as above; conditions: reference: sequence is the full UniProt precursor, the tested protein was the secreted form or ectodomain
[1] = protein concentration 0.0114286 µM
[2] = protein concentration 0.114286 µM
[3] = protein concentration 0.0357143 µM
[4] = protein concentration 0.357143 µM
[5] = protein concentration 0.0225 µM
[6] = protein concentration 0.01975 µM
[7] = protein concentration 0.1975 µM
[8] = protein concentration 0.02625 µM
[9] = protein concentration 0.2625 µM
[10] = protein concentration 0.0257143 µM
[11] = protein concentration 0.257143 µM
[12] = protein concentration 0.01025 µM
[13] = protein concentration 0.1025 µM
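Further: secreted proteins added to cultured cells, EdU pulse at the end, nuclei found by Hoechst imaging, EdU status from nuclear versus surrounding ring intensity ratio, PBS as neutral control.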

H7BXV5 was tested, and the “percentage of EdU-negative” value (MCF7; [1]) was 23 ± 0.76%, the “percentage of EdU-negative” value (MCF7; [2]) was 23.83 ± 0.21% and the “percentage of EdU-negative” value (hTERT-HMEC; [1]) was 4.71 ± 0.48%. For the same substance, the “percentage of EdU-negative” value (hTERT-HMEC; [2]) was 7.28 ± 0.91%.

In the case of “MAAAAATKILLCLPLLLLLSGWSRAGRADPHSLCYDITVIPKFRPGPRWCAVQGQVDEKTFLHYDCGNKTVTPVSPLGKKLNVTTAWKAQNPVLREVVDILTEQLRDIQLENYTPKEPLTLQARMSCEQKAEGHSSGSWQFSFDGQIFLLFDSEKRMWTTVHPGARKMKEKWENDKVVAMSFHYFSMGDCIGWLEDFLMGMDSTLEPSAGAPLAMSSGTTQLRATATTLILCCLLIILPCFILPGI [Q9BZM5]”, the “percentage of EdU-negative” value (MCF7; [3]) is reported as 22.2 ± 0.6%, the “percentage of EdU-negative” value (MCF7; [4]) is reported as 25.5 ± 0.78% and the “percentage of EdU-negative” value (hTERT-HMEC; [3]) is reported as 4.46 ± 0.35%. The “percentage of EdU-negative” value (hTERT-HMEC; [4]) was 5.89 ± 0.34%.

For “MAAAAMAAAAGGGAGAARSLSRFRGCLAGALLGDCVGSFYEAHDTVDLTSVLRHVQSLEPDPGTPGSERTEALYYTDDTAMARALVQSLLAKEAFDEVDMAHRFAQEYKKDPDRGYGAGVVTVFKKLLNPKCRDVFEPARAQFNGKGSYGNGGAMRVAGISLAYSSVQDVQKFARLSAQLTHASSLGYNGAILQALAVHLALQGESSSEHFLKQLLGHMEDLEGDAQSVLDARELGMEERPYSSRLKKIGELLDQASVTREEVVSELGNGIAAFESVPTAIYCFLRCMEPDPEIPSAFNSLQRTLIYSISLGGDTDTIATMAGAIAGAYYGMDQVPESWQQSCEGYEETDILAQSLHRVFQKS [Q9NX46]”, the “percentage of EdU-negative” value (MCF7; [5]) was 24.5 ± 2.2%, the “percentage of EdU-negative” value (MCF7; protein concentration 0.225 µM) was 29.1 ± 3.5% and the “percentage of EdU-negative” value (hTERT-HMEC; [5]) was 4.73 ± 1.1%. For the same substance, the “percentage of EdU-negative” value (hTERT-HMEC; protein concentration 0.225 µM) was 7.08 ± 0.11%.

“MAAAASPAFLLCLPLLHLLSGWSRAGWVDTHCLCYDFIITPKSRPEPQWCEVQGLVDERPFLHYDCVNHKAKAFASLGKKVNVTKTWEEQTETLRDVVDFLKGQLLDIQVENLIPIEPLTLQARMSCEHEAHGHGRGSWQFLFNGQKFLLFDSNNRKWTALHPGAKKMTEKWEKNRDVTMFFQKISLGDCKMWLEEFLMYWEQMLDPTKPPSLAPGTTQPKAMATTLSPWSLLIIFLCFILAGR [Q9BZM6]” was tested, and the “percentage of EdU-negative” value (MCF7; [6]) was 24.2 ± 1.6%, the “percentage of EdU-negative” value (MCF7; [7]) was 25.4 ± 1.1% and the “percentage of EdU-negative” value (hTERT-HMEC; [6]) was 4.75 ± 0.89%. For the same substance, the “percentage of EdU-negative” value (hTERT-HMEC; [7]) was 6.21 ± 1.1%.

In the case of “MAAAASPAILPRLAILPYLLFDWSGTGRADAHSLWYNFTIIHLPRHGQQWCEVQSQVDQKNFLSYDCGSDKVLSMGHLEEQLYATDAWGKQLEMLREVGQRLRLELADTELEDFTPSGPLTLQVRMSCECEADGYIRGSWQFSFDGRKFLLFDSNNRKWTVVHAGARRMKEKWEKDSGLTTFFKMVSMRDCKSWLRDFLMHRKKRLEPTAPPTMAPGLAQPKAIATTLSPWSFLIILCFILPGI [Q9BZM4]”, the “percentage of EdU-negative” value (MCF7; [8]) is reported as 25.38 ± 0.21%, the “percentage of EdU-negative” value (MCF7; [9]) is reported as 27.9 ± 1.3% and the “percentage of EdU-negative” value (hTERT-HMEC; [8]) is reported as 5.34 ± 0.19%. The “percentage of EdU-negative” value (hTERT-HMEC; [9]) was 4.8 ± 0.37%.

In the case of “MAAALFVLLGFALLGTHGASGAAGFVQAPLSQQRWVGGSVELHCEAVGSPVPEIQWWFEGQGPNDTCSQLWDGARLDRVHIHATYHQHAASTISIDTLVEEDTGTYECRASNDPDRNHLTRAPRVKWVRAQAVVLVLEPGTVFTTVEDLGSKILLTCSLNDSATEVTGHRWLKGGVVLKEDALPGQKTEFKVDSDDQWGEYSCVFLPEPMGTANIQLHGPPRVKAVKSSEHINEGETAMLVCKSESVPPVTDWAWYKITDSEDKALMNGSESRFFVSSSQGRSELHIENLNMEADPGQYRCNGTSSKGSDQAIITLRVRSHLAALWPFLGIVAEVLVLVTIIFIYEKRRKPEDVLDDDDAGSAPLKSSGQHQNDKGKNVRQRNSS”, the “percentage of EdU-negative” value (MCF7; [5]) is reported as 22.7 ± 2.4%, the “percentage of EdU-negative” value (MCF7; protein concentration 0.225 µM) is reported as 25.2 ± 1.3% and the “percentage of EdU-negative” value (hTERT-HMEC; [5]) is reported as 5.59 ± 0.91%. The “percentage of EdU-negative” value (hTERT-HMEC; protein concentration 0.225 µM) was 5.94 ± 1.8%.

“MAAARLCLSLLLLSTCVALLLQPLLGAQGAPLEPVYPGDNATPEQMAQYAADLRRYINMLTRPRYGKRHKEDTLAFSEWGSPHAAVPRELSPLDL” was tested, and the “percentage of EdU-negative” value (MCF7; [10]) was 20.5 ± 1.5%, the “percentage of EdU-negative” value (MCF7; [11]) was 23.4 ± 3.6% and the “percentage of EdU-negative” value (hTERT-HMEC; [10]) was 5.37 ± 1.1%. For the same substance, the “percentage of EdU-negative” value (hTERT-HMEC; [11]) was 5.93 ± 0.18%.

With “MAAATGPSFWLGNETLKVPLALFALNRQRLCERLRKNPAVQAGSIVVLQGGEETQRYCTDTGVLFRQESFFHWAFGVTEPGCYGVIDVDTGKSTLFVPRLPASHATWMGKIHSKEHFKEKYAVDDVQYVDEIASVLTSQKPSVLLTLRGVNTDSGSVCREASFDGISKFEVNNTILHPEIVECRVFKTDMELEVLRYTNKISSEAHREVMKAVKVGMKEYELESLFEHYCYSRGGMRHSSYTCICGSGENSAVLHYGHAGAPNDRTIQNGDMCLFDMGGEYYCFASDITCSFPANGKFTADQKAVYEAVLRSSRAVMGAMKPGVWWPDMHRLADRIHLEELAHMGILSGSVDAMVQAHLGAVFMPHGLGHFLGIDVHDVGGYPEGVERIDEPGLRSLRTARHLQPGMVLTVEPGIYFIDHLLDEALADPARASFLNREVLQRFRGFGGVRIEEDVVVTDSGIELLTCVPRTVEEIEACMAGCDKAFTPFSGPK” the “percentage of EdU-negative” value (MCF7; [12]) was 26 ± 1%, the “percentage of EdU-negative” value (MCF7; [13]) was 27.3 ± 1.4% and the “percentage of EdU-negative” value (hTERT-HMEC; [12]) was 5.01 ± 0.5%. For the same substance, the “percentage of EdU-negative” value (hTERT-HMEC; [13]) was 4.28 ± 0.51%.
